± gives the half width of the 95% confidence interval.

Data set [1] can be described thus: folding stability dG unfold from chymotrypsin proteolysis; higher = more stable. Put shortly:
(§1)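 Unfolding free energy was derived, per protease or combined, against a sequence-predicted unfolded-state K50 and a shared folded-state K50, starting from K50 inferred by Bayesian fitting of sequencing counts. Digestion with trypsin and chymotrypsin was carried out on designed mini-proteins under 80 residues without cysteine in a PA-tagged cDNA display construct. Only designs with AlphaFold2 dimer inter-PAE above 15 were kept.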

A short description of data set [2]: folding stability dG unfold from trypsin proteolysis; higher = more stable. The essentials:
as §1

Data set [3] can be described thus: folding stability dG unfold (combined trypsin and chymotrypsin); higher = more stable. Put shortly:
as §1

With “SAGGSAGGSAGGELNIDDIKIDWFPADDMDDRYIFTEKIRGPNGKPTMEVTFWLPAGDLSAGGSAGGSAGGS [r10_155_TrROS]”, the “folding stability dG unfold” value in data set [1] was -0.261 ± 0.62 kcal/mol; in data set [2], 0.262 ± 0.068 kcal/mol; in data set [3], 0.00836 ± 0.18 kcal/mol.
The like results for “SAGGSAGGSAGGEPDKVSIHINITEEFIEQIKNGKPIPPWARPAIKYAQKKGKKVEIVWSAGGSAGGSAGGS [r10_890_TrROS]” were, in that order, -0.532 ± 0.53 kcal/mol, -1.04 ± 0.61 kcal/mol and -0.498 ± 0.26 kcal/mol.
For the sequence “SAGGSAGGSAGGEPIPTKTIEVDEATGTVTVTVTFPPPNETVTVTRPAPPDVSLEEVLASAGGSAGGSAGGS [r10_676_JUSTAS]”, the “folding stability dG unfold” value turned out to be 1.58 ± 0.15 kcal/mol in data set [1], 1.07 ± 0.17 kcal/mol in data set [2] and 1.59 ± 0.15 kcal/mol in data set [3].
The like results for “SAGGSAGGSAGGERVVRFPYTGTLEDVLEAARRLRRLGGVEVGYDPENGVLLARFKGGGLSAGGSAGGSAGG [r7_219_TrMRF]” were, in that order, 1.6 ± 0.046 kcal/mol, 0.54 ± 0.056 kcal/mol and 1.25 ± 0.049 kcal/mol.
The like results for “SAGGSAGGSAGGETITIKNKKTNETVTIEKDKDGNYTITYPDGSKKTYKKGEKISKSALSAGGSAGGSAGGS [r10_98_TrROS_Hall]” were, in that order, 1.18 ± 0.14 kcal/mol, 0.162 ± 0.13 kcal/mol and 0.9 ± 0.18 kcal/mol.
Consider “SAGGSAGGSAGGEWRTLYIPIPGMPPEFIETFALELLDDGAKVEDIEWNPNNGYLMITVRSAGGSAGGSAGG [r7_906_TrROS]”, for which the “folding stability dG unfold” value was found to be 2.05 ± 0.056 kcal/mol in data set [1], 1.37 ± 0.029 kcal/mol in data set [2] and 1.82 ± 0.075 kcal/mol in data set [3].
The like results for “SAGGSAGGSAGGFIPEDGHPDETVQLTTSLTLTTSYTLPNGETVTETHTVPVLFTYKVPSAGGSAGGSAGGS [r10_1135_TrMRF]” were, in that order, 1.02 ± 0.071 kcal/mol, 0.433 ± 0.02 kcal/mol and 0.797 ± 0.054 kcal/mol.
Consider “SAGGSAGGSAGGFVLTFTLPDSVVRITLPEDANPEEIKQRLLEEHGVPIELRLIPPSNPLSAGGSAGGSAGG [r11_805_JUSTAS]”, for which the “folding stability dG unfold” value in data set [1] is 0.664 ± 0.38 kcal/mol; in data set [2], 0.726 ± 0.12 kcal/mol; in data set [3] it was 0.782 ± 0.2 kcal/mol.
The like results for “SAGGSAGGSAGGGDFEKVKVRFRYVNPDGGPERDIEIEVEARKEDIPRLLKELKDAGLIESAGGSAGGSAGG [r7_618_TrMRF]” were, in that order, 1.25 ± 0.15 kcal/mol, 0.982 ± 0.054 kcal/mol and 1.23 ± 0.099 kcal/mol.
The like results for “SAGGSAGGSAGGGISEAAASGTPLLVTYTDESGNVTEVVVRPDSPVPLPGVVSAEVRLESAGGSAGGSAGGS [r10_700_JUSTAS]” were, in that order, 0.167 ± 0.023 kcal/mol, 1.05 ± 0.03 kcal/mol and 0.666 ± 0.037 kcal/mol.
The like results for “SAGGSAGGSAGGGIVIEGDIESIEVEKNPDTDYYLVTVRFKSTDKPYTFVFKKDEKLDVSAGGSAGGSAGGS [r10_819_TrMRF]” were, in that order, 2.16 ± 0.21 kcal/mol, 1.49 ± 0.036 kcal/mol and 1.77 ± 0.23 kcal/mol.
Regarding “SAGGSAGGSAGGGIYEVDENGNPLPPRPYLVLKIGYEVGYLPDGGAGLSLNIEIYPVYDASAGGSAGGSAGG [r7_572_TrMRF]”, the “folding stability dG unfold” value was determined as 4.25 ± 0.13 kcal/mol in data set [1], 3.18 ± 0.2 kcal/mol in data set [2] and 3.79 ± 0.23 kcal/mol in data set [3].
The like results for “SAGGSAGGSAGGGKEISLDELIDIAIELGYPGTIEDLLADPNIKIYPNPYDDKPVILIPDSAGGSAGGSAGG [r7_180_TrMRF]” were, in that order, 0.576 ± 0.053 kcal/mol, 1.7 ± 0.065 kcal/mol and 1.25 ± 0.086 kcal/mol.
For the sequence “SAGGSAGGSAGGGKKILGVQPELFYDPENGTLYVKTVAVGEDENGAPGDADISVEPFPLLSAGGSAGGSAGG [r7_892_TrMRF]”, the “folding stability dG unfold” value is -0.596 ± 0.54 kcal/mol in data set [1], 0.242 ± 0.053 kcal/mol in data set [2] and -0.277 ± 0.26 kcal/mol in data set [3].
Turning to “SAGGSAGGSAGGGKKKVTVEFVIKVPKNSKPVFFTIKGGIKVEFYPIPDTNYALVKVTFGSAGGSAGGSAGG [r7_796_TrMRF]”, the “folding stability dG unfold” value in data set [1] worked out at 3.92 ± 0.12 kcal/mol; in data set [2], 2.46 ± 0.19 kcal/mol; in data set [3] it was 3.52 ± 0.15 kcal/mol.
The like results for “SAGGSAGGSAGGGKLAIRVEIEPVRTETRLRADGSLETRTEFRVRIEIRPVGNPDDPRNNSAGGSAGGSAGG [r7_523_TrMRF]” were, in that order, 4.36 ± 0.056 kcal/mol, 2.89 ± 0.059 kcal/mol and 3.89 ± 0.073 kcal/mol.
For “SAGGSAGGSAGGGKPVKVIVVEVGGKKVLVTFDEDTGKLTVYNLDTGKTETVTVSPEDLSAGGSAGGSAGGS [r10_669_TrROS_Hall]”, in that order: 1.67 ± 0.066 kcal/mol, 1.83 ± 0.12 kcal/mol and 1.77 ± 0.16 kcal/mol.
For “SAGGSAGGSAGGGKSITKVYTLPNGGKAVAVYNPETGKVEVYFFKPNGKLLEKKTFKAKSAGGSAGGSAGGS [r10_1044_TrMRF]”, in that order: 2.84 ± 0.07 kcal/mol, 2.18 ± 0.068 kcal/mol and 2.51 ± 0.11 kcal/mol.
Consider “SAGGSAGGSAGGGLGYRTLTGRVEFELNITYLTEDGSPATLNLRFELELRFVVPVPPDYPSAGGSAGGSAGG [r7_926_TrMRF]”, for which the “folding stability dG unfold” value was 5.54 ± 0.098 kcal/mol in data set [1], 3.7 ± 0.14 kcal/mol in data set [2] and 5.37 ± 0.14 kcal/mol in data set [3].
“SAGGSAGGSAGGGLSSAPPPVVALSSSVSLVPSPSGGILTVTTTTDAGSGTTTTTTTALSAGGSAGGSAGGS [r10_1137_JUSTAS]”: the results for the “folding stability dG unfold” value in data set [1], in data set [2] and in data set [3] were 0.758 ± 0.025 kcal/mol, 2.44 ± 0.068 kcal/mol and 1.71 ± 0.042 kcal/mol, respectively.
The like results for “SAGGSAGGSAGGGMARAEKLPSSWTLVSVTPRDGSTVVTYKLPDGSTLTLDLRPDSYDGASAGGSAGGSAGG [r7_775_JUSTAS]” were, in that order, 1.46 ± 0.15 kcal/mol, 0.436 ± 0.058 kcal/mol and 1.1 ± 0.075 kcal/mol.
The like results for “SAGGSAGGSAGGGMKVKIETTKLPNGIWRVKVYDENGNFIGEKEFTSEEELEEFKKKVASSAGGSAGGSAGG [r7_476_JUSTAS]” were, in that order, 4.6 ± 0.14 kcal/mol, 2.98 ± 0.25 kcal/mol and 4.49 ± 0.19 kcal/mol.
For “SAGGSAGGSAGGGMMKTVLISLEGVDPSGGPSRRVEIELTLSPEEIPKVIEELAKAGRVLSAGGSAGGSAGG [r7_618_JUSTAS]”, in that order: -0.0881 ± 0.1 kcal/mol, 0.533 ± 0.058 kcal/mol and 0.232 ± 0.099 kcal/mol.
For the sequence “SAGGSAGGSAGGGMMLAEFLKYDPRNPTATVVSVRTFSDPEEARAEAEKRGLLVRVIEPSAGGSAGGSAGGS [r10_657_JUSTAS]”, the “folding stability dG unfold” value in data set [1] is 0.0192 ± 0.16 kcal/mol; in data set [2] it was -0.45 ± 0.28 kcal/mol; in data set [3], -0.111 ± 0.1 kcal/mol.
For “SAGGSAGGSAGGGMSLSYTVTTSTTVVPAPDGVTVLHPTTTTFPGGPTTTTTTVTVEPAGSAGGSAGGSAGG [r7_701_JUSTAS]”, in that order: -0.855 ± 0.12 kcal/mol, 0.872 ± 0.021 kcal/mol and 0.409 ± 0.051 kcal/mol.
The like results for “SAGGSAGGSAGGGMVIVTREPENLTFTVYREDPSTGKLRRIGTFPVSPDELEKVLALLSSAGGSAGGSAGGS [r10_275_JUSTAS]” were, in that order, 2.47 ± 0.074 kcal/mol, 1.77 ± 0.053 kcal/mol and 2.2 ± 0.079 kcal/mol.
In the case of “SAGGSAGGSAGGGNSLSSVRVVPVTLRTSEPLEQDGDPRPREFTETTVVRITETVPPGLSAGGSAGGSAGGS [r10_118_JUSTAS]”, the “folding stability dG unfold” value amounted to 0.57 ± 0.082 kcal/mol in data set [1], 0.0729 ± 0.18 kcal/mol in data set [2] and 0.356 ± 0.11 kcal/mol in data set [3].

These data come from the supplement of paper PMC12764529.
